For test [1], the target named is human IL-13 (human). Briefly: BIAcore, IgG coupled to the chip, IL-13 in flow. For orientation: In SPR one partner is held on a chip, and binding of the other changes the refractive index at the surface.
The target in test [2] is native human IL-13 released from HDLM-2 cells (human). Briefly: cell-based or functional assay.
In test [3] the target is human IL-13 (human). Put plainly: BIAcore, IgG4 coupled to the chip, IL-13 in flow.
Test [4] concerns the target human IL-13 (human). Put plainly: cell-based or functional assay.
For test [5], the target named is T1, murine IL-13 (murine).
T1 chain: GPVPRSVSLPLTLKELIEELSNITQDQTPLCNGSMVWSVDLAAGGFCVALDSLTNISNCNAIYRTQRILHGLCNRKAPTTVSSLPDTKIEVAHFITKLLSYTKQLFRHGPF
Put plainly: BIAcore, IgG4 coupled to the chip, IL-13 in flow.

The target of test [6] is human IL-13 (human). Put plainly: cell-based or functional assay. The source holds these as a separate data set.

Broadly, the Kd is a measure of binding affinity in units of concentration. A higher Kd goes with a looser complex. Broadly, the koff is a measure of how fast the partners let go of each other. Lower therefore signals slow dissociation. In general, kon refers to the second-order rate constant of association. Low readings indicate slow association, high ones fast association.

Chain of native human IL-13 released from HDLM-2 cells (human) (chain, as listed by the source): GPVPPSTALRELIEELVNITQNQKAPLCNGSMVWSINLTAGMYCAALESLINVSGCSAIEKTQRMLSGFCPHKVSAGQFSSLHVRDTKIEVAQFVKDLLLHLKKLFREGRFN
Chain of human IL-13 (human) (chain, as listed by the source): as above

B1: BAK278D6 IgG (antibody, V domains shown)
VH: EVQLVQSGAEVKKPGASVKVSCKASGYTFRNYGLSWVRQAPGQGLEWMGWISANNGDTNYGQEFQGRITMTTETSTNTAHMELRSLRSDDTAVYYCVRDSSSNWARWFFDLWGKGTMVTVSS
VL: SYVLTQPPSVSVAPGQTARIPCGGNNIGSKLVHWYQQKPGQAPVLVVYDDGDRPSGIPERFSGSNSGNTATLTISRIDAGDEADYYCQVWDTGSDPVVFGGGTKLTVL
B1: in test [1], binding was put at a Kd of 13.5 nM, the koff came to 0.00741 s⁻¹ and the kon is 549000 M⁻¹ s⁻¹.

B2: BAK1183H4 IgG4 (antibody, V domains shown)
VH: QVQLVQSGAEVKKPGASVKVSCKASGYTFTNYGLSWVRQAPGQGLEWMGWINYDGGNTQYGQEFQGRVTMTTDTSTSTAYMELRSLRSDDTAVYYCARDSSSSWARWFFDLWGRGTLVTVSS
VL: SYVLTQPPSVSVAPGKTARITCGGNIIGSKLVHWYQQKPGQAPVLVIYDDGDRPSGIPERFSGSNSGNTATLTISRVEAGDEADYYCQVWDTGSDPVVFGGGTKLTVL
Regarding B2, in test [2], the “IC50, HDLM-2 cell proliferation” value was 3.5 nM. Moreover, in test [3], the Kd came out at 0.081 nM.

B3: BAK1183H4 scFv (scFv, V domains shown)
VH: QVQLVQSGAEVKKPGASVKVSCKASGYTFTNYGLSWVRQAPGQGLEWMGWINYDGGNTQYGQEFQGRVTMTTDTSTSTAYMELRSLRSDDTAVYYCARDSSSSWARWFFDLWGRGTLVTVSS
VL: SYVLTQPPSVSVAPGKTARITCGGNIIGSKLVHWYQQKPGQAPVLVIYDDGDRPSGIPERFSGSNSGNTATLTISRVEAGDEADYYCQVWDTGSDPVVFGGGTKLTVL
As for B3, the “IC50, TF-1 proliferation (Mean TF1)” value in test [4] turned out to be 0.2 nM.

B4: BAK502G9 IgG4 (antibody, V domains shown)
VH: QVQLVQSGAEVKKPGASVKVSCKASGYTFTNYGLSWVRQAPGQGLEWMGWISANNGDTNYGQEFQGRVTMTTDTSTSTAYMELRSLRSDDTAVYYCARDSSSSWARWFFDLWGRGTLVTVSS
VL: SYVLTQPPSVSVAPGKTARITCGGNIIGSKLVHWYQQKPGQAPVLVIYDDGDRPSGIPERFSGSNSGNTATLTISRVEAGDEADYYCQVWDTGSDPVVFGGGTKLTVL
For B4, the “IC50, HDLM-2 cell proliferation” value in test [2] is 4.6 nM.

B5: BAK1167F2 IgG4 (antibody, V domains shown)
VH: QVQLVQSGAEVKKPGASVKVSCKASGYTFEQTGVSWVRQAPGQGLEWMGWISANNGDTNYGQEFQGRVTMTTDTSTSTAYMELRSLRSDDTAVYYCARDSSSSWARWFFDLWGRGTLVTVSS
VL: SYVLTQPPSVSVAPGKTARITCGGNIIGSKLVHWYQQKPGQAPVLVIYDDGDRPSGIPERFSGSNSGNTATLTISRVEAGDEADYYCQVWDTGSDPVVFGGGTKLTVL
For the molecule B5, in test [2], the “IC50, HDLM-2 cell proliferation” value came out at 1.1 nM. In test [3], this molecule gave a Kd of 0.136 nM.

B6: BAK1167F2 scFv (scFv, V domains shown)
VH: QVQLVQSGAEVKKPGASVKVSCKASGYTFEQTGVSWVRQAPGQGLEWMGWISANNGDTNYGQEFQGRVTMTTDTSTSTAYMELRSLRSDDTAVYYCARDSSSSWARWFFDLWGRGTLVTVSS
VL: SYVLTQPPSVSVAPGKTARITCGGNIIGSKLVHWYQQKPGQAPVLVIYDDGDRPSGIPERFSGSNSGNTATLTISRVEAGDEADYYCQVWDTGSDPVVFGGGTKLTVL
In the case of B6, the “IC50, TF-1 proliferation (Mean TF1)” value in test [4] came to 0.2 nM.

B7: BAK502G9 scFv (scFv, V domains shown)
VH: QVQLVQSGAEVKKPGASVKVSCKASGYTFTNYGLSWVRQAPGQGLEWMGWISANNGDTNYGQEFQGRVTMTTDTSTSTAYMELRSLRSDDTAVYYCARDSSSSWARWFFDLWGRGTLVTVSS
VL: SYVLTQPPSVSVAPGKTARITCGGNIIGSKLVHWYQQKPGQAPVLVIYDDGDRPSGIPERFSGSNSGNTATLTISRVEAGDEADYYCQVWDTGSDPVVFGGGTKLTVL
As for B7, the “IC50, TF-1 proliferation (Mean TF1)” value in test [4] stood at 8 nM.

B8: BAK209B11 human IgG4 (antibody, V domains shown)
VH: VQLQESGGGGLVQPGGSLRLSCAASGFTFSSYGMSWVRQAPGKGLEWVSSISASGDSTFYADSVKGRFTISRDNNKNMVFLQVNSLRADDTAVYFCAKDWSQWLVGDAFDVWGRGTTVTVSS
VL: DIQLTQSPSTLSASVGDRVTITCRASQSVSLWVAWYQQRPGKAPKLLIYDGSTLQSGVPARFSGSGSGTEFTLTISSLQPDDFATYYCQQYKTFSTFGQGTKVEIKR
On to B8, for which, in test [5], the Kd was 5.1 nM, the koff amounted to 0.0198 s⁻¹ and the kon came out at 3.9e+06 M⁻¹ s⁻¹.

B9: BAK615E3 scFv (scFv, V domains shown)
VH: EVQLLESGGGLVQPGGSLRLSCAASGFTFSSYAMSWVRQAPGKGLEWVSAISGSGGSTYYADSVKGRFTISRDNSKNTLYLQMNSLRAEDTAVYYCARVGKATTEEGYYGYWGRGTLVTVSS
VL: NFMLTQPHSVSESPGKTVTISCTRSSGSIASNYVQWYQQRPGSAPTTVIYDDNQRPSGVPDRFSGSIDSSSNSASLTISGLKTEDEADYYCQSYDSNNDVFGGGTKVTVL
As to B9, in test [6], the “IC50, TF-1 cell proliferation” value came to 3 nM.

(Values after patent publication US7935343B2 (MedImmune Limited, dated 2011).)
